{
  "source": "patent US20240317880A1",
  "about": "(KLING BIOTHERAPEUTICS B V, published 2024)",
  "binders": {"B1": {"name": "AT1636-E (antibody, human IgG1, V domains shown)", "VH": "EVQLVESGGGLVKPGGSLRLSCAASGFTFSNAWMNWVRQAPGKGLEWVGRIKSKIDGETTEYTTPVKGRFTISRDDSKDTVYLHMKRLKTEDTAVYYCTPGVGANDPYYFDRWGQGVLVTVSS", "VL": "not shown", "notes": "also called G63E"}, "B2": {"name": "AT1636-I (antibody, human IgG1, V domains shown)", "VH": "B1 VH with T28I, E58G", "VL": "not shown", "notes": "also called T29I"}, "B3": {"name": "AT1636-N (antibody, human IgG1, V domains shown)", "VH": "B1 VH with E58G, D106N", "VL": "not shown", "notes": "also called D112N"}, "B4": {"name": "AT1636-Y (antibody, human IgG1, V domains shown)", "VH": "B1 VH with N31Y, E58G", "VL": "not shown", "notes": "also called N36Y"}, "B5": {"name": "AT1636-YN (antibody, human IgG1, V domains shown)", "VH": "B1 VH with N31Y, E58G, D106N", "VL": "not shown", "notes": "also called -NY; AT1636-NY"}, "B6": {"name": "AT1636-IYEN (antibody, human IgG1, V domains shown)", "VH": "B1 VH with T28I, N31Y, D106N", "VL": "not shown"}, "B7": {"name": "AT1636-IYN (antibody, human IgG1, V domains shown)", "VH": "B1 VH with T28I, N31Y, E58G, D106N", "VL": "not shown"}, "B8": {"name": "AT1636 (antibody, V domains shown)", "VH": "B1 VH with E58G", "VL": "not shown", "notes": "The original 7G02 antibody is IgG3; also called AT1636 wild-type; AT1636-wt"}},
  "note": "Numbering of substitutions follows the chain as printed. Numbers in names are those of the source.",
  "data": [
    {"target": "T1, recombinant soluble full length E-cadherin (without transmembrane and intracellular domains) mouse-Fc fusion … (human, UniProt P12830 155-709)", "T1 construct": "extracellular domain; Made in Expi293 or CHO cells; A C-tag-only version is also described; the ELISA used the mFc proteins; also called E-cadherin mFc; not shown: FLAG tag on a mouse Fc-tail equipped with a sortase and HIS tag", "T1 sequence (looked up)": "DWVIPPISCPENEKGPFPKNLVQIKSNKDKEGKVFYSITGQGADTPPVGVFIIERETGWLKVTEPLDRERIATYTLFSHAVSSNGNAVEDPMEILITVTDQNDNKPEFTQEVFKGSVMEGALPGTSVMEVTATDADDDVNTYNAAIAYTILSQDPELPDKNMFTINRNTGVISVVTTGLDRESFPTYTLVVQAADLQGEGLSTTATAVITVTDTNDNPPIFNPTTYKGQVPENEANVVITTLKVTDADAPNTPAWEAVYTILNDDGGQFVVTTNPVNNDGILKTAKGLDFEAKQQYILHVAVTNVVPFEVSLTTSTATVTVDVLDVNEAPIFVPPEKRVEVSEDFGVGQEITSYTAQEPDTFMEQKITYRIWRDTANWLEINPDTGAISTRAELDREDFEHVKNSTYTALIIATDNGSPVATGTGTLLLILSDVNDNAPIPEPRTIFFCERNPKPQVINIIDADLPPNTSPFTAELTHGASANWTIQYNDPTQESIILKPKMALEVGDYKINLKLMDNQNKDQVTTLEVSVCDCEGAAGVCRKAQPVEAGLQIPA", "experiment": "ELISA on captured full length E-cadherin mFc", "experimental": "(§1) TABLE 4 Calculation of the fold-increase in binding of the AT1636 variants compared to the parental AT1636 wild-type antibody to the Full-Length and p70 E-cadherin and the E-cadherin D3 mutated protein. EC₅₀ values were determined using Prism software. Fold increase in binding compared to AT1636 wild-type antibody\n(§2) Recombinant E-cadherin mFc proteins were captured on 96-well plates (Costar) using goat-anti-mouse IgG Fcy antibodies (Jackson). […] Bound antibodies were visualized using a TMB substrate (Sigma) and the reaction was stopped with H₂SO₄(Merck) and quantified by OD450 measurement using an Envision plate reader (Perkin Elmer). As shown in FIG. 7b (two left panels), similar increased binding of AT1636-YN and -IYN antibody variants in comparison to AT1636 antibody was observed by ELISA to full length E-cadherin and p70. […] Here SC10.17, a humanized EC1 domain specific E-cadherin antibody binds full length E-cadherin but not the p70 truncated variant. Of note, all tested antibodies AT1636 variants, as well as AT1636 wild type, bind the truncated 70 kDa form of E-cadherin better than full length E-cadherin.", "units": {"fold increase in binding compared to AT1636 wild-type antibody (ratio of ELISA EC50 values)": "fold"}, "values": [
      {"binder": "B1", "fold increase in binding compared to AT1636 wild-type antibody (ratio of ELISA EC50 values)": 0.5},
      {"binder": "B2", "fold increase in binding compared to AT1636 wild-type antibody (ratio of ELISA EC50 values)": 2.6},
      {"binder": "B3", "fold increase in binding compared to AT1636 wild-type antibody (ratio of ELISA EC50 values)": 6},
      {"binder": "B4", "fold increase in binding compared to AT1636 wild-type antibody (ratio of ELISA EC50 values)": 6.5},
      {"binder": "B5", "fold increase in binding compared to AT1636 wild-type antibody (ratio of ELISA EC50 values)": 28.4},
      {"binder": "B6", "fold increase in binding compared to AT1636 wild-type antibody (ratio of ELISA EC50 values)": 34.3},
      {"binder": "B7", "fold increase in binding compared to AT1636 wild-type antibody (ratio of ELISA EC50 values)": 64.3}
    ]},
    {"target": "T2, recombinant soluble p70 E-cadherin mouse-Fc fusion protein (human, UniProt P12830 463-709)", "T2 construct": "range 463-end of the extracellular domain; Made in Expi293 or CHO cells; also called 70 kDa; human p70 E-cadherin-mouseFc-biotin; not shown: FLAG tag on a mouse Fc-tail equipped with a sortase and HIS tag", "T2 sequence (looked up)": "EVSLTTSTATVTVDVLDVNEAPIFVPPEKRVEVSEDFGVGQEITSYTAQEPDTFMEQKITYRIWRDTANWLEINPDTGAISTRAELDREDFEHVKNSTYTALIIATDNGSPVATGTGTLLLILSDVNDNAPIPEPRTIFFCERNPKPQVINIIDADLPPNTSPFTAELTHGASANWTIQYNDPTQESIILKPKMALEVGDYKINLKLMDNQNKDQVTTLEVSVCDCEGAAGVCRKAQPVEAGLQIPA", "experiment": "ELISA on captured p70 E-cadherin mFc", "experimental": "as §1, §2", "units": {"fold increase in binding compared to AT1636 wild-type antibody (ratio of ELISA EC50 values)": "fold"}, "values": [
      {"binder": "B1", "fold increase in binding compared to AT1636 wild-type antibody (ratio of ELISA EC50 values)": 0.2},
      {"binder": "B2", "fold increase in binding compared to AT1636 wild-type antibody (ratio of ELISA EC50 values)": 2},
      {"binder": "B3", "fold increase in binding compared to AT1636 wild-type antibody (ratio of ELISA EC50 values)": 4.5},
      {"binder": "B4", "fold increase in binding compared to AT1636 wild-type antibody (ratio of ELISA EC50 values)": 6.6},
      {"binder": "B5", "fold increase in binding compared to AT1636 wild-type antibody (ratio of ELISA EC50 values)": 56.5},
      {"binder": "B6", "fold increase in binding compared to AT1636 wild-type antibody (ratio of ELISA EC50 values)": 28.6},
      {"binder": "B7", "fold increase in binding compared to AT1636 wild-type antibody (ratio of ELISA EC50 values)": 67.1}
    ]},
    {"target": "T3, mouse E-cadherin on CMT93 cells (mouse, UniProt P09803 157-884)", "T3 construct": "whole, on cells", "T3 sequence (looked up)": "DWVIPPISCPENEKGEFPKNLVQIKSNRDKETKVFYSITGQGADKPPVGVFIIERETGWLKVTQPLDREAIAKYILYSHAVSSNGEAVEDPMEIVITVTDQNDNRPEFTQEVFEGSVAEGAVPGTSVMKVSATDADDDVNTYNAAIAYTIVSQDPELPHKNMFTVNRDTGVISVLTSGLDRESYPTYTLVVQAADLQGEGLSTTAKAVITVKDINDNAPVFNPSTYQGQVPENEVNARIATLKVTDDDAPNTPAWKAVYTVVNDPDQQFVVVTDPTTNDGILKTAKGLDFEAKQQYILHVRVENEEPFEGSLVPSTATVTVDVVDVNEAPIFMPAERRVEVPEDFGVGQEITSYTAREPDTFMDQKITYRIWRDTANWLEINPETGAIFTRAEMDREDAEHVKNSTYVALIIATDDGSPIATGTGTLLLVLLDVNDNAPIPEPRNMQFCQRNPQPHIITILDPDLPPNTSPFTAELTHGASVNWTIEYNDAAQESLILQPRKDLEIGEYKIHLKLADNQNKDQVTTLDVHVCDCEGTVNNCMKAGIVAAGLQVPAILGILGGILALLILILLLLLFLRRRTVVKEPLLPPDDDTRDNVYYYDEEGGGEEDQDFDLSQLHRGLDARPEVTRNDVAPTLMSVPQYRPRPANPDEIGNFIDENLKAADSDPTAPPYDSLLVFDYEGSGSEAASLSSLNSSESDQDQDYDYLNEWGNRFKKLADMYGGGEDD", "experiment": "flow cytometry on mouse CMT93 cells", "values": [
      {"binder": "B5", "binding result": "binds"},
      {"binder": "B6", "binding result": "binds"},
      {"binder": "B7", "binding result": "binds"}
    ]},
    {"target": "T4, full length E-cadherin (about 120 kDa), on human cells or from their lysate (human, UniProt P12830 155-882, O-mannosylated in cells that express TMTC3, as the filing describes)", "T4 construct": "whole, on cells; also called CDH1; CD324", "T4 sequence (looked up)": "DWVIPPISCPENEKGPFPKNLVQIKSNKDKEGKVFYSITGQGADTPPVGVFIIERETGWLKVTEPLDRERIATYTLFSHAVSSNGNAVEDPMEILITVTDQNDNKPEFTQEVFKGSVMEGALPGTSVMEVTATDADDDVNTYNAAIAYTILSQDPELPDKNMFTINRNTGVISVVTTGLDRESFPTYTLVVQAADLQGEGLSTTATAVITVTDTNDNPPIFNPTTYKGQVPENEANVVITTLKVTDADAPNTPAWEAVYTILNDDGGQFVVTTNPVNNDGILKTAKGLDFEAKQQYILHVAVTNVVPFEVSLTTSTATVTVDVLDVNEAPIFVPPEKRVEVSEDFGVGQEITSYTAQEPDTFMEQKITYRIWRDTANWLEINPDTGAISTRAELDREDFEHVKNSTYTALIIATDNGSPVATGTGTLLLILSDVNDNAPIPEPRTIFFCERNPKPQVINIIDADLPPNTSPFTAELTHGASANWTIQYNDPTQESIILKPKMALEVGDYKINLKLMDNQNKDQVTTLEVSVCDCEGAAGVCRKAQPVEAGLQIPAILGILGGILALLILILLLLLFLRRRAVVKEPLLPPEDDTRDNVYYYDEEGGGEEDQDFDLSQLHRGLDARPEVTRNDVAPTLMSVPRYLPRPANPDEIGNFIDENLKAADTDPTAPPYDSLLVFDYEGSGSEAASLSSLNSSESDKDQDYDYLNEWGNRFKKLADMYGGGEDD", "experiment": "flow cytometry on DLD1 cells with TMTC3 shRNA against scrambled shRNA control", "units": {"fold reduction in binding after TMTC3 knock-down": "fold"}, "values": [
      {"binder": "B8", "fold reduction in binding after TMTC3 knock-down": "> 3"}
    ]},
    {"target": "T5, truncated 70 kDa form of E-cadherin (p70), endogenous, from DLD1 cells (human, UniProt P12830 463-882, Ser/Thr residues found to be single O-mannosylated (mass spectrometry of AT1636-precipitated p70))", "T5 construct": "range 463-C-terminus; also called p70 E-cadherin; 70 kDa protein", "T5 sequence (looked up)": "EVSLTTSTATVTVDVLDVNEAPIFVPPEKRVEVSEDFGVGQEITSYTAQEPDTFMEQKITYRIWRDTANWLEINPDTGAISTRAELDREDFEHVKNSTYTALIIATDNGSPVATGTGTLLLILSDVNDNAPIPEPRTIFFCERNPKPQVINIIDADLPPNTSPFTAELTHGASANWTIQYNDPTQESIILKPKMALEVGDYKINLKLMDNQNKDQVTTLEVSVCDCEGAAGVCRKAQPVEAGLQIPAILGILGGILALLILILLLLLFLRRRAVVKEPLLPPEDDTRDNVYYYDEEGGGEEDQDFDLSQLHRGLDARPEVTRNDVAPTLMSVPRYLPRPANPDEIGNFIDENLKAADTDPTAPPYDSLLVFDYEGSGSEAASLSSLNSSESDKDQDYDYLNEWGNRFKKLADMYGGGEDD", "experiment": "immunoprecipitation from DLD1 lysate, western blot, densitometry", "experimental": "The specific binding of AT1636 to p70 E-cadherin was confirmed by western blot. AT1636 reactivity was compared to the commercially available EP700Y (Abcam, rabbit antibody) and a mouse antibody specific for the cytoplasmic domain of E-cadherin (clone 36/E, BD Biosciences). […] The E-cadherin antibody immunoprecipitation was performed from DLD1 cells with equal amounts of lysate (10 mg) and antibodies (2,5 μg). Input (40 μg) and IP samples (all) were run on SDS-PAGE and transferred to PVDF membrane (Bio-Rad) for immunoblotting. Using the antibody binding the intracellular domain of E-cadherin as well as the EP700Y antibody, the full length (120 kDa) E-cadherin as well as the 70 kDa protein were immunoprecipitated, while AT1636 mainly immunoprecipitated the 70 kDa protein (FIG. 2b). Thus AT1636 preferentially binds p70 over full length E-cadherin as shown by the enrichment for p70 over full length E-cadherin. Upon densitometric quantification of the signals, we find a 7-fold enrichment of p70 over full length in the AT1636 IP, compared to the EP700Y IP.", "units": {"fold enrichment of p70 over full length E-cadherin in the IP, compared to the EP700Y IP": "fold"}, "values": [
      {"binder": "B8", "fold enrichment of p70 over full length E-cadherin in the IP, compared to the EP700Y IP": 7}
    ]}
  ]
}
